One data set has as its target T1, Sfr1 (S. pombe, UniProt Q9USV1 1-299).
T1 sequence: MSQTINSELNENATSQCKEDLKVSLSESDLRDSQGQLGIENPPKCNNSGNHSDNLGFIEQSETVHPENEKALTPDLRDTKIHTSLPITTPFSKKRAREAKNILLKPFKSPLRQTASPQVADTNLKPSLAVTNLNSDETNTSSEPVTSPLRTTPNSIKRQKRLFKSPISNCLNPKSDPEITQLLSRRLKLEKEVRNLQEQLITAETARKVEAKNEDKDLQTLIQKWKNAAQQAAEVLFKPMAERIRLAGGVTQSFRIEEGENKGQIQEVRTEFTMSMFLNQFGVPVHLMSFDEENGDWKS
The data set can be described thus: AUC.

The data set “native MS” deals with the molecule itself. The data set is described as follows: native MS.

B1: Swi5 (natural protein)
chain: MEKSQLESRVHLLEQQKEQLESSLQDALAKLKNRDAKQTVQKHIDLLHTYNEIRDIALGMIGKVAEHEKCTSVELFDRFGVNGSE
Turning to B1, the “stoichiometry N” value was 1 Swi5:Sfr1 with Sfr1 and 2 in the data set “native MS”.

The values above are taken from publication PMC3234860 (The Journal of Biological Chemistry, 2011).
